Test results: the supplement of paper PMC12042874
± gives the uncertainty stated by the source.

Test: amyloid nucleation score (Sup35N fusion, yeast selection) (log enrichment); library NNK1; higher = more nucleation; inactive = no reads after selection
Outline: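 Peptides of 20 random codons, each fused to Sup35N, were expressed in psi-negative yeast. Cells were induced with 100 μM copper sulfate for 24 hours and grown 7 days at 30°C on medium lacking adenine and uracil, and plasmid inserts before and after selection were Illumina-sequenced. Nucleation scores are DiMSum log enrichments of output over input reads, centred on the mode score of non-aggregating sequences, and sequences under 100 input reads were excluded.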

Row | Substance | amyloid nucleation score
1 | GYGQCSGSYAGSGGT | 0.715 ± 0.57
2 | GYMSRVTLVVCTMMIRRNGD | 0.906 ± 0.24
3 | GYSYFPNYHVFRVHE | 1.27 ± 0.54
4 | GYTRGDDSGAVHSLSWVFAG | -0.361 ± 1.7
5 | HAIGTQMVTLGLRSISFSWN | 1.19 ± 0.67
6 | HAVSDFIPG | 0.69 ± 0.41
7 | HCGGNSRSVN | -1.11 ± 0.83
8 | HCRFWRTFDGSNGRNIENSD | 0.986 ± 1.1
9 | HCYGIVEFSSSCCEFFRHGV | 6.36 ± 0.092
10 | HCYHGRGADR | 0.181 ± 0.74
11 | HDKYTLIGPRH | -1.27 ± 1.2
12 | HDTDAKVQILNA | 0.626 ± 0.69
13 | HEGMLPIDVLRHSRPRQPFV | -0.686 ± 0.83
14 | HEKDWLTSVCFISELSTFNN | 0.709 ± 0.65
15 | HESGRRAIYS | -0.019 ± 0.29
16 | HFAGCNSIDLQCNIRCKNIR | 5.469 ± 0.048
17 | HFGDGILLI | -1.21 ± 1.7
18 | HFRVSDKDL | 1.2 ± 0.38
19 | HFTCRTLITGSYSVTTLNVS | 5.23 ± 0.061
20 | HFYSGECVFRGACRYQRRGH | 0.402 ± 1.4
21 | HGAVLCC | 0.305 ± 1.4
22 | HGKFRHLSCTASSNEVEGNN | 1.17 ± 0.58
23 | HGNCWSPTRAVRQYGVNAPM | 0.81 ± 0.36
24 | HHHLNYTINIRQSYFVMCGG | 5 ± 0.071
25 | HHLAKCRTLKLYLLWLQRIL | 0.471 ± 0.54

Row | Substance | amyloid nucleation score
26 | HHVWGFRSMLDSLHRSDCIQ | -0.989 ± 2.7
27 | HIAHTEPGAIWV | inactive
28 | HIENNSLKSDIVGRRGVRLS | -0.549 ± 0.64
29 | HIIQNLV | 0.25 ± 0.77
30 | HIKVHKFVGENWETFSRADM | -0.026 ± 1.7
31 | HIRCHVRTGEAARHRQVAQY | 0.136 ± 0.39
32 | HLGTTNMNVFNVG | 1.79 ± 0.082
33 | HLILRTLWYKYLREKFSE | -0.286 ± 0.3
34 | HLINVQ | 0.632 ± 0.53
35 | HLPTKFLGVPNKLAYSTAPV | -0.401 ± 0.42
36 | HLRRVMYLFAANCGPRPAND | -0.69 ± 0.96
37 | HLSLPNVPVALWKRSRPVTM | 1.26 ± 0.85
38 | HLSMFDCVYSF | 1.26 ± 0.9
39 | HLWFE | -0.146 ± 0.43
40 | HLYLFSGFRAVSESEVRGAK | 2.6 ± 0.22
41 | HMGVRMNHFFTSDLSVVMWF | 3.59 ± 0.12
42 | HMLASNSRWNTAKGINWGFH | 0.758 ± 0.7
43 | HMRYWLLQYGVILAQG | 0.71 ± 0.42
44 | HNFEFFMGQGMIFWCRLTEN | 1.24 ± 0.56
45 | HNGRVFVMRWLYGVLGECG | -1.31 ± 1.1
46 | HNLYMWVFCCCQYRMNFSWS | 3.49 ± 0.11
47 | HNQDSCIFGQYSDNEVNASV | -1.47 ± 1.6
48 | HNSLWGYFFMF | 3.19 ± 0.12
49 | HNVLRSHTSRYRYVM | 0.226 ± 0.7
50 | HPALKWLCPGIERLCLAWSG | 0.818 ± 0.61

Row | Substance | amyloid nucleation score
51 | HQFSVHIPCCYSVPGNLYGW | 0.888 ± 0.73
52 | HRGTDLSLRSWVDWLHTLRG | 0.67 ± 0.57
53 | HRMGPQVKHIHNIGESKQSE | 0.822 ± 0.88
54 | HSCYLANCLSRVQGSKRDTE | -0.911 ± 0.54
55 | HSFSFCCSSYSCNLVGIELN | 7.599 ± 0.043
56 | HSGNTLIQMCVI | -0.083 ± 0.61
57 | HSHRVIS | 0.828 ± 0.51
58 | HSKGYMARHDRAYGDSERVV | 0.303 ± 0.77
59 | HSNMVNS | -0.73 ± 0.33
60 | HSSAEIMPGHISGTWGLCDK | -0.62 ± 0.87
61 | HSSSSHGEKCGYVGNSHPSS | 0.691 ± 0.92
62 | HSSWEYSSYGVPSNMEKDWV | inactive
63 | HSVFVMVCSSCMVG | 8.892 ± 0.068
64 | HSYYGHPHTCFAMKEEVHVR | 0.035 ± 0.77
65 | HTCGIDGLNKRMT | -0.791 ± 1.6
66 | HTEYRKYRVCTFLK | 0.826 ± 0.4
67 | HTLDSISGSCGPLIAIVDFQ | inactive
68 | HTPLNRC | -0.469 ± 1.4
69 | HTVNLAPRNPDPPS | 0.259 ± 0.77
70 | HVGRHTTTGHAGFCNCGNPN | 3.46 ± 0.17
71 | HVHWPLLNNAYAS | 0.867 ± 0.93
72 | HVLKGGRAAFVELRGKSHGL | -0.081 ± 0.96
73 | HVQLELTSCKEGGGCRS | 0.379 ± 0.78
74 | HVSLVHLRYCRICSLLSMWG | 2.77 ± 0.12
75 | HVWRDGSE | 1.82 ± 0.54

Row | Substance | amyloid nucleation score
76 | HVYSSVLCQQD | 0.717 ± 0.65
77 | HWCYVLNS | inactive
78 | HWLGYVVLDLFDWPYCMIDL | 1.38 ± 0.5
79 | HWPGLVEYGLGWLRGRLVMG | 0.139 ± 0.6
80 | HYGSWLCELDVVLYCDCSVM | 0.021 ± 0.62
81 | HYHFDTACVWCDYSVHGNKD | 7.38 ± 0.057
82 | HYLCPVACRGRFVVSQPVNI | -1.14 ± 1.5
83 | HYMMADLGFWQYP | 0.138 ± 0.94
84 | HYTLCCKFFNQHVGHAMQNE | 1.87 ± 0.51
85 | HYVKVRFRNRSVVYALIGGV | 0.752 ± 0.54
86 | HYVYRGQLRGHACKGWSYFG | 0.531 ± 0.51
87 | IAAVQ | 0.162 ± 0.89
88 | IACFFQT | 1.66 ± 0.21
89 | IARAVSSESASVWVKDT | -1.62 ± 2.7
90 | IASLRIIDSIQFISVNSCYG | 0.356 ± 0.4
91 | ICCISKILLFCISM | 6.53 ± 0.091
92 | ICDINQCRMAFYLCFLLREY | 3.35 ± 0.099
93 | ICEVSLCYR | 0.2 ± 1
94 | ICGYWSLKVVCRMCHPYGNG | -1.17 ± 0.85
95 | ICHCGRHAVHRRHTCHWTLG | inactive
96 | ICKLRNSTGSTRIT | 0.227 ± 0.45
97 | ICLESNRFI | inactive
98 | ICNPGVS | 0.71 ± 0.8
99 | ICSGGYLVWELPSGTADQVM | 0.25 ± 0.48
100 | ICSVRSELNSSTRC | 0.803 ± 0.48

Row | Substance | amyloid nucleation score
101 | ICVGGNGADCFKMTTGGQLC | -0.481 ± 0.5
102 | ICVRMSKFGCWTFSVKRGWQ | 0.335 ± 0.77
103 | IDCGIVRWKNRCGAYAFGVD | -1.52 ± 2.4
104 | IDFYVCDMC | 7.857 ± 0.058
105 | IDNTLIIDFLFLCNVRTFLR | -0.162 ± 0.24
106 | IDWQLTSLDQGSCFLA | -0.468 ± 0.88
107 | IECPMAYTKTYFVYESEKRN | inactive
108 | IELPRFYILVNFYGTLSLSL | 3.83 ± 0.12
109 | IENDGMSRAFC | 0.635 ± 0.67
110 | IEVGYLSTCEFLVRMRKL | 0.346 ± 0.51
111 | IEWVPTT | inactive
112 | IFALWTHKTPRQIAPLGTQK | -0.835 ± 1.3
113 | IFCITGAGLLDRCSSRTLAS | -0.175 ± 0.41
114 | IFCVMVLSWSAVDPALSVA | -1.03 ± 0.81
115 | IFEWFVPLEWSV | 0.012 ± 1.4
116 | IFLVCVSKN | 0.601 ± 0.35
117 | IFVYRRRMGSIV | 1.08 ± 0.32
118 | IFYFELPKFCKIKDISSKWV | inactive
119 | IFYFVL | 6.8 ± 0.074
120 | IGLKKGHYNLILHYYFVWKV | 0.505 ± 0.51
121 | IGMWSHWR | 0.137 ± 0.39
122 | IGQGFNCIR | -0.083 ± 1.4
123 | IGYCRGHAYKMRYFSVRWFV | -1.25 ± 1.7
124 | IGYFWCCRLETANIVFNFVW | -0.724 ± 1.3
125 | IHDAYVTESGYWVDV | 1.29 ± 0.66

Row | Substance | amyloid nucleation score
126 | IHHSLHYPLYSWKSNWRTWG | -0.353 ± 0.61
127 | IHRLSARCRLNI | 0.657 ± 0.42
128 | IIFVEWNSGRAC | -0.526 ± 0.51
129 | IIGQLRI | 0.454 ± 0.66
130 | IIGQYMQFAYFSVDRTL | 0.871 ± 0.38
131 | IIILYMLRPAMSGWDVFACC | 0.627 ± 0.18
132 | IIIRCKSVVA | -0.656 ± 1.9
133 | IILYVLANFIMWWREVFNPK | 0.218 ± 0.48
134 | IIMVRLFSRNGVEDC | 1.61 ± 0.12
135 | IINKS | -0.766 ± 2.4
136 | IIRDSFKNRPETAYTHRTWD | 1.13 ± 0.15
137 | IIRFTTFPCFNVR | 2.1 ± 0.13
138 | IIRFWLTSVVIYMSFLCRGR | -1.2 ± 1.9
139 | IISLVNVWQNMCR | 5.15 ± 0.077
140 | IISPYHLLLIKYRSSCSLLH | 0.985 ± 0.33
141 | IITCRSASETMWFSCFDGLA | 2.95 ± 0.17
142 | IKCPRLK | -0.466 ± 0.66
143 | IKGFALVWTPFGLAFFYRG | 0.113 ± 0.95
144 | IKPDWKMKNRDGTTTKLI | 2.6 ± 0.093
145 | IKRKSAESNGCSLYLYDSLK | -0.189 ± 0.43
146 | IKWANREALLLWVELGRLRW | -0.66 ± 0.84
147 | IKYVQIGRRRLKWGGERRPL | 0.311 ± 0.37
148 | ILCCLMSFWDVRKFFFNQKA | -0.722 ± 0.41
149 | ILCFFRECLLDWVSLGRFIV | inactive
150 | ILCKVPVVASSNGS | -0.35 ± 0.5

Row | Substance | amyloid nucleation score
151 | ILFMLECGMSTTSCHKIRVC | -0.157 ± 0.36
152 | ILGQYGALYSIGTHWFLFVI | -0.755 ± 0.37
153 | ILHIEDAVMADWMHILMGSR | 0.571 ± 0.35
154 | ILIAIMNFARSEVVTNGHIR | 2.13 ± 0.41
155 | ILICQCLMLACGRVFSFYLV | -0.328 ± 0.57
156 | ILKSSGICFDGLPTKFNL | 0.127 ± 0.25
157 | ILLGYGQSMSRHIPTDKNEL | -0.79 ± 0.74
158 | ILLPWGMCWWMLCR | 0.036 ± 0.55
159 | ILLVSNEEISLCYCVYLGWM | 5.729 ± 0.056
160 | ILQFFDILSIYVCGWEHEL | 6.273 ± 0.053
161 | ILQIYLMWQVW | 4.85 ± 0.05
162 | ILSGRRDNSAERGRGGLWVM | -0.206 ± 1.2
163 | ILSRKGLLVQRKRVNVVVIP | 0.437 ± 0.32
164 | ILSVVYVLVCVVQVLCKQWH | 0.163 ± 0.43
165 | ILTFQSCRRFACKAFMFRRR | 2.07 ± 0.16
166 | ILVGCSKSRRLNGGQLLIPS | 0.314 ± 0.45
167 | ILVLYSVRWIEATR | -0.224 ± 0.35
168 | ILVVAVI | -0.64 ± 0.39
169 | ILWFYYTLGACFCWLYINYK | 0.26 ± 0.57
170 | ILWLVRSGVSYQQGGDSTPV | 0.919 ± 0.28
171 | ILYFMLSRFTVVN | 0.881 ± 0.76
172 | ILYGISSFESIADWAGLMSV | 0.535 ± 0.84
173 | ILYTSTVGTQLPKDGLDC | 0.593 ± 0.34
